What was measured:
[1] = molecular target: T1, recombinant human TNFα (human, UniProt P01375 77-233, biotinylated (2:1 molar ratio of biotin to rhTNFα) in the SPR assays; 125I-labeled in the receptor binding assays); experiment: SPR (BIAcore), scFv over biotinylated rhTNFα
T1 construct: also called rhTNFα; rhTNF

[2] = molecular target: T1, recombinant human TNFα; experiment: SPR (BIAcore), scFv over biotinylated rhTNFα; remark: listed apart in the source

T1 sequence (P01375 77-233 limits assumed): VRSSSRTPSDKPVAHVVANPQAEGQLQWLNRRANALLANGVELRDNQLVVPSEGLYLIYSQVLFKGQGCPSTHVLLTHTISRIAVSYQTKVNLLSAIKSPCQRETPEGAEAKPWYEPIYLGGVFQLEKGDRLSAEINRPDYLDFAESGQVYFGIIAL

Binder | fold faster off rate than with the D2E7 VH CDR3 [1] [fold] | koff [2] [s⁻¹]
3C-H2 / LOE7 scFv (scFv, V domains shown) VH: QVQLVESGGGLVQPGRSLRLSCAASGFTFDDYAMHWVRQAPGKGLDWVSAITWNSGHIDYADSVEGRFAVSRDNAKNALYLQMNSLRPEDTAVYYCAKASYLSTASSLEYWGQGTLVTVSS VL: not shown | 3 | 0.0015
2SD4 VH / VLLOE5 scFv (scFv, V domains shown) VH: QVQLVESGGGLVQPGRSLRLSCAASGFTFDDYAMHWVRQAPGKGLDWVSAITWNSGHIDYADSVEGRFAVSRDNAKNALYLQMNSLRPEDTAVYYCTKASYLSTSSSLDNWGQGTLVTVSS VL: DIQMTQSPSSLSASIGDRVTITCRASQGIRNYLAWYQQKPGKAPKLLIYAASTLQSGVPSRFSGSGSGTDFTLTISSLQPEDVATYYCQKYNSAPYYFGQGTKVEIK |  | 0.0116
